The target in data set [1] is T1, Melbournevirus histone doublet MV-H2B-H2A (MEL_369) (Melbournevirus, UniProt A0A097I2B5 1-269).
T1 sequence (looked up): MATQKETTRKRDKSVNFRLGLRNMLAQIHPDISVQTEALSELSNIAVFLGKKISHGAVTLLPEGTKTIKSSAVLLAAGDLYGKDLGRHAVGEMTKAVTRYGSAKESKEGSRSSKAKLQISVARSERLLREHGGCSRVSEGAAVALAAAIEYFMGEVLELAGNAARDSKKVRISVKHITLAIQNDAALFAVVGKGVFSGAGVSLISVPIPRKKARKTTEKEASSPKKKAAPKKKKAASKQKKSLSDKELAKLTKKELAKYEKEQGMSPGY
The data set is described as follows: cryo-EM structure.

The data set “cryo-EM structure” deals with the molecule itself. Kind of data set: cryo-EM structure.

B1: Melbournevirus histone doublet MV-H4-H3 (MEL_368) (natural protein, UniProt A0A097I2D0 1-216, looked up)
chain: MSKAGKKVKAQQHGHLADHVSVGETQIPKASTQHLLRKAGSLSAAGDTEVPIRGFVHMKLHKLVQKSLLAMQLAKRKTIMKSDVKKAAELMHLPVFAIPTKDSGAKGSVFLSCRQKGAGSAGTGSETNSQEVRSQMKSTCLIIPKERFRTMAKEISKKEGHDVHIAEAALDMLQVIVESCTVRLLEKALVITYSGKRTRVTSKDIETAFMLEHGPL
In the case of B1, the binding result (in data set [1]; in the data set “cryo-EM structure”) was “binds” throughout.

For the origin of these results see article doi:10.1101/2021.04.29.441998 (bioRxiv, 2021).
